Test results from US7164008B2, “Isolated complexes of endotoxin and MD-2” (priority 2003, dated 2007).

Target: T1, TLR4 (Homo sapiens, UniProt O00206+Q9Y6Y9)
T1 construct: host or cells: HEK293 stably transfected with TLR4 (HEK/TLR4)
Assay: Cell association of [^3H]-LOS forms with HEK/TLR4 cells (liquid scintillation)
Assay type: cell-based
Conditions: [^3H]-LOS-MD-2 0.75 ng/ml, HEK/TLR4 overnight
Description: FIG. 3 depicts delivery of [^3H]-LOS-MD-2 but not [^3H]-LOSagg or [^3H]-LOS-sCD14 to HEK/TLR4. HEK (□) or HEK/TLR4 (▪) cells were incubated with [^3H]-LOS (0.75 ng/ml) in the form of LOSagg, LOS-sCD14, or LOS-MD-2. After overnight incubation at 37° C., cells were washed and lysed as described in Methods. The amount of [^3H]-LOS associated with the cells was measured by liquid scintillation spectroscopy. Results are from one experiment in duplicate, representative of three similar experiments.
FIG. 4 depicts the effects of added MD-2 on activation of HEK/TLR4 by [^3H]-LOS-MD-2 and delivery of [^3H]-LOS-MD-2 to HEK/TLR4. […] After overnight incubation, extracellular accumulation of IL-8 was measured. […] Column fractions were analyzed for [^14C]-LOS by liquid scintillation spectroscopy. […] The amount of radioactivity associated with the cells was determined by liquid scintillation spectroscopy. No radioactivity was associated with parental cells.
HEK or HEK/TLR4 cells were grown to confluency in 6 well plates, washed twice with warm PBS, and [^3H]-LOS aggregates or [^3H]-LOS-protein complexes+/−indicated supplements were incubated overnight at 37° C., 5% CO2, and 95% humidity in DMEM, 0.1% HSA with the supplements indicated in the legends to FIGS. 3 and 4. […] The amount of radioactivity associated with the cells was determined by liquid scintillation spectroscopy. Total recovery of radioactivity was >90%.

T1 sequence (O00206 24-839, one chain of several): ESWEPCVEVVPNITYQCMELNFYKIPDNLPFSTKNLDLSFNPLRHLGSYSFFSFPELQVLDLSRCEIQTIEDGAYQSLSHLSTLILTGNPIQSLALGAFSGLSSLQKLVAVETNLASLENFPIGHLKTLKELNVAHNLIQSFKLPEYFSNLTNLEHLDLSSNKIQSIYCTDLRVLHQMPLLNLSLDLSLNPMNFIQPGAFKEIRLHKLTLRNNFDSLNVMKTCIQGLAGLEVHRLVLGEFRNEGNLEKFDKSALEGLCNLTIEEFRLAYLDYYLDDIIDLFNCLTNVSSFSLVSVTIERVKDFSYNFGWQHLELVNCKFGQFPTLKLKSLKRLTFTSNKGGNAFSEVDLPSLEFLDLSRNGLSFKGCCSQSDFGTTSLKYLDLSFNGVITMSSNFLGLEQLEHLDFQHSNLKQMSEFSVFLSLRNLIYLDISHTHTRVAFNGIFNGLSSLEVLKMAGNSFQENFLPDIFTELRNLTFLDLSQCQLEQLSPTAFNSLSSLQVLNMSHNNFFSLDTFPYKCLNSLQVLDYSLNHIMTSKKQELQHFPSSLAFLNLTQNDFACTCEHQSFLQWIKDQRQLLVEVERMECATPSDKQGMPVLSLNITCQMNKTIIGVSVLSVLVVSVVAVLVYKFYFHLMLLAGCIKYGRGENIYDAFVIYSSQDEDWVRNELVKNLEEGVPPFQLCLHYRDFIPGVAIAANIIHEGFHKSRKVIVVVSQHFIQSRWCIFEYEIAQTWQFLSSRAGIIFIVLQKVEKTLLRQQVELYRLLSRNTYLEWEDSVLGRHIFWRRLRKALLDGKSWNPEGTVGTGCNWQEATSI

B1: wt MD-2: soluble polyhistidine-tagged recombinant wild-type MD-2 in conditioned insect cell culture medium (protein)
chain: QKQYWVCNSSDASISYTYCDKMQYPISINVNPCIELKRSKGLLHIFYIPRRDLKQLYFNLYITVNTMNLPKRKEVICRGSDDDYSFCRALKGETVNTTISFSFKGIKFSKGKYKCVVEAISGSPEEMLFCLEFVILHQPNSNHHHHHH
In the case of B1, the “effect of excess MD-2 on TLR4-dependent cell association of [^3H]-LOS-MD-2” value is reported as “blocked”.
